Holding throughout (assay): SPR BIAcore binding of STRADα to immobilised MO25α
In general terms: In SPR one partner is held on a chip, and binding of the other changes the refractive index at the surface.

Test [1] addresses T1, MO25α (WT) (Homo sapiens, UniProt Q7RTN6+Q9Y376).
T1 construct: wild-type and mutant forms of STRADα (residues 54–431) and MO25α (residues 1–341) were expressed individually as GST fusion proteins in E. coli; GST (cleaved yes); made in house; host or cells: E. coli (STRADα: BL21(DE3)pLysS, co-expressed with MO25α and then separated from it)
T1 sequence (Q9Y376 1-341): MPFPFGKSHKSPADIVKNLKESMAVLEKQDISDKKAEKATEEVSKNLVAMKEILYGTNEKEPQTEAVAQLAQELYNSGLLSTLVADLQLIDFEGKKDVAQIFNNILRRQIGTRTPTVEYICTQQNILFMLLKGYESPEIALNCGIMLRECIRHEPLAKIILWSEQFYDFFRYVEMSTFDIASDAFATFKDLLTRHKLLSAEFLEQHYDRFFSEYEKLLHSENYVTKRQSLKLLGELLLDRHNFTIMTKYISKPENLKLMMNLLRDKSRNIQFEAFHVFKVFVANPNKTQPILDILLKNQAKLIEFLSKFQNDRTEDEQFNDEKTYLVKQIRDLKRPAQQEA
T1 sequence (Q7RTN6 59-431): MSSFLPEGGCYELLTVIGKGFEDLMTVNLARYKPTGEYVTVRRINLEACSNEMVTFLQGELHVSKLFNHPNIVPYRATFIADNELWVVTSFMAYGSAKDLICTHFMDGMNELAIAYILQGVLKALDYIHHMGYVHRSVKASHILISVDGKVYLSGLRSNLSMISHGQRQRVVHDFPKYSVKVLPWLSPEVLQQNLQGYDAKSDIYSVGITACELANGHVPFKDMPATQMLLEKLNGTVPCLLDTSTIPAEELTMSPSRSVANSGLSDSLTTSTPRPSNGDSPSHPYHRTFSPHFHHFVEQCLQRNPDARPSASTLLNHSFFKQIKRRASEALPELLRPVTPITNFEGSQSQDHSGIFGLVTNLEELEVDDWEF
Here is the method:
(§1) SPR measurements were performed using a BIAcore T100 instrument. Wild-type and mutant forms of MO25α were immobilized on a CM5 sensor chip using standard amine-coupling chemistry, and 10 mM HBS (pH 7.4) was used as the running buffer. The carboxymethyl dextran surface was activated with a 7-min injection of a 1∶1 ratio of 0.4 M 1-ethyl-3-(3-dimethylaminopropyl) carbodiimide hydrochloride (EDC)/0.1 M N-hydroxy succinimide (NHS). MO25α (5–7 µM) was coupled to the surface with a 1-min injection of protein diluted in 10 mM sodium acetate (pH 5.5). Remaining activated groups were blocked with a 7-min injection of 1 M ethanolamine (pH 8.5). MO25α was immobilised on three flow cells of a CM5 chip at densities 1,700–2,500 RU performed at 25°C, leaving one flow cell as a reference to subtract any possible nonspecific binding.
(§2) STRADα was prepared in running buffer containing 50 mM Tris (pH 7.8), 50 mM NaCl, 270 mM sucrose, 1 mM DTT, 0.005% P20, and 0.1 mg/ml BSA in the presence/absence of 100 µM ATP and 1 mM MgCl2, and injected over all four surfaces at nine concentrations of a 3-fold concentration series (5 µM to […]). Each concentration was injected in duplicate over all surfaces. Association was measured for 60 s at a flow rate of 50 µl/min, and dissociation was measured for 3 min. STRADα dissociated completely from the MO25α surfaces, thus eliminating the need for a regeneration step.
(§3) Data were analysed using Scrubber 2 (BioLogic Software) and CLAMP software. Data were double referenced to the reference surface to subtract any possible nonspecific binding and to the blank buffer injections to subtract drift of the target from surface. Data were fitted to a 1∶1 or 2∶1 binding site model where appropriate. Kinetic association (k a) and dissociation rate (k d) constants were separately determined from the BIAcore sensorgrams, and equilibrium dissociation constants (K d) were calculated as: K d1 = k d1/k a1 and K d2 = k d2/k a2. Equilibrium constants were also independently calculated from a saturation binding curve, by fitting the measured response (R) from specific binding to the following equation: R = (R max1[STRAD]/([STRAD]+K d1))+(R max2[STRAD]/([STRAD]+K d2)), where R max1 and R max2 are the relative maximal changes in response for sites 1 and 2, respectively, and K d1 and K d2 are the equilibrium dissociation constants for sites 1 and 2, respectively. Dose-response curves for calculating the Hill slope (H) of the data were fitted with the following equation: R = minimum+(maximum−minimum)/(1+10^((logEC50−[STRAD])×H)) using GraphPad-PRISM software.

Test [2] deals with T2, MO25α (R227A/M260A) (Homo sapiens, UniProt Q9Y376, M260A/R227A).
T2 construct: wild-type and mutant forms of STRADα (residues 54–431) and MO25α (residues 1–341) were expressed individually as GST fusion proteins in E. coli; GST (cleaved yes); made in house; host or cells: E. coli
T2 sequence (Q9Y376 whole entry R227A/M260A, one chain of several, the tested form may be a part): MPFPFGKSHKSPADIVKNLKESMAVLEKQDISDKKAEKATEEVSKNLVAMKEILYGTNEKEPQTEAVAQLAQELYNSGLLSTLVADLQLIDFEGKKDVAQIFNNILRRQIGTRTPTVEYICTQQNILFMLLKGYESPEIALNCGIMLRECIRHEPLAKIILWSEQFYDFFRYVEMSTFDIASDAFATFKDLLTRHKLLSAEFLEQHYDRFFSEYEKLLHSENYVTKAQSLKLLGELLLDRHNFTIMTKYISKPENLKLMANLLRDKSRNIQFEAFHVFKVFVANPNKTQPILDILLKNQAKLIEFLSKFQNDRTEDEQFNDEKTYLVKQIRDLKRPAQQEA
The conditions noted are these: even in the presence of ATP. The procedure:
as §1, §2, §3

The target of test [3] is T3, MO25α (M260A) (Homo sapiens, UniProt Q7RTN6+Q9Y376, M260A).
T3 construct: wild-type and mutant forms of STRADα (residues 54–431) and MO25α (residues 1–341) were expressed individually as GST fusion proteins in E. coli; GST (cleaved yes); made in house; host or cells: E. coli
T3 sequence (Q9Y376 1-341 M260A): T1 sequence (Q9Y376 1-341) with M260A
T3 sequence (Q7RTN6 59-431): T1 sequence (Q7RTN6 59-431)
Here is the method:
as §1, §2, §3

Test [4] addresses T4, MO25α (R227A) (Homo sapiens, UniProt Q7RTN6+Q9Y376, R227A).
T4 construct: wild-type and mutant forms of STRADα (residues 54–431) and MO25α (residues 1–341) were expressed individually as GST fusion proteins in E. coli; GST (cleaved yes); made in house; host or cells: E. coli
T4 sequence (Q9Y376 1-341 R227A): T1 sequence (Q9Y376 1-341) with R227A
T4 sequence (Q7RTN6 59-431): T1 sequence (Q7RTN6 59-431)
The procedure: as §1, §2, §3

As a reminder, the Hill slope is a measure of the steepness of the concentration-response curve.

Residue numbers refer to the chain shown, from its start. Read-outs that look alike come from different tables or passages of the source.

B1: STRADα: STRADα pseudokinase (residues 59–431), His tag removed, analyte injected over immobilised MO25α in SPR (protein)
chain: T1 sequence (Q7RTN6 59-431)
modifications: left off: His6 with TEV site (…), N-terminal, cleaved
notes: STRADα pseudokinase (residues 59–431), His tag removed, analyte injected over immobilised MO25α in SPR
With B1, the Kd is 2500 nM in test [1] (+ 0.1 mM ATP, Kd = kd/ka, read-out: Kd1); 12 nM in test [1] (in the presence of ATP, read-out: second binding constant (Kd2)); 3800 nM in test [1] (no ATP, Kd = kd/ka, read-out: Kd1). The kd1 was 0.43 (1.4 × 10−3) s−1 in test [1] (+ ATP + Mg2+); 0.63 (3.0 × 10−3) s−1 in test [1] (no ATP); 0.43 (1.7 × 10−3) s−1 in test [3] (+ ATP + Mg2+); 0.92 (3.0 × 10−3) s−1 in test [3] (no ATP); 0.72 (2.0 × 10−3) s−1 in test [4] (+ ATP + Mg2+). The kd2 in test [1] (+ ATP + Mg2+) was 0.04 (8.8 × 10−5) s−1; in test [3] (+ ATP + Mg2+) it was 0.05 (2.3 × 10−4) s−1. For the same molecule, the Hill slope in test [1] (in the presence of ATP, two-site binding) is on record as 0.4. The “interaction with STRADα” value in test [2] was “failed to interact”. In addition, the “binding of STRADα observed by SPR” value in test [4] (in the absence of ATP) is given as “virtually abolished binding”.

The record behind these values is article PMC2686265, “ATP and MO25α Regulate the Conformational State of the STRADα Pseudokinase and Activation of the LKB1 Tumour Suppressor” (PLoS Biology, 2009).
